Assay results as given in US20220380801A1, “TRIPARTITE SYSTEMS FOR PROTEIN DIMERIZATION AND METHODS OF USE” (priority 2019, published 2022).
Like-named read-outs stand apart in the source and are kept apart here.

B1: PRSIM_01: scFv PRSIM binding molecule, SEQ ID NO: 10 (protein)
scFv: QVQLVQSGAEVKKPGSSVKVSCKASGGTFSSYAISWVRQAPGQGLEWMGGIIPIFGTANYAQKFQGRVTITADESTSTAYMELSSLRSEDTAVYYCARGQGYITVFDYWGQGTLVTVSSGGGGSGGGGSGGGGSAQSVLTQPPSASGTPGQRVTISCSGSSSNIGSNTVNWYQQLPGTAPKLLIYSNNQRPSGVPDRFSGSKSGTSASLAISGLQSEDEADYYCAAWDHHWEQVVFGGGTKLTVL
modifications: PRSIM_01
B2: PRSIM_32: Tn3 PRSIM binding molecule, SEQ ID NO: 6 (protein)
chain: RLDAPSQIEVKDVTDTTALITWWSPRYYYASISGFELTYGIKDVPGDRTTIKLDYASNDYSIGNLKPDTEYEVSLISWNYGDWRYSSSNPAKITFKTGL
modifications: PRSIM_32
B3: PRSIM_36: Tn3 PRSIM binding molecule, SEQ ID NO: 8 (protein)
chain: RLDAPSQIEVKDVTDTTALITWSWPRDDDYDIWYFELTYGIKDVPGDRTTIKLLNYASPYSIGNLKPDTEYEVSLISVVPDTYGRGTSNPAKITFKTGL
modifications: PRSIM_36
B4: PRSIM_47: Tn3 PRSIM binding molecule, SEQ ID NO: 9 (protein)
chain: RLDAPSQIEVKDVTDTTALITWSRPGVSIWYFELTYGIKDVPGDRTTIKLDYRSYYYSIGNLKPDTEYEVSLISGSYGLVGVRASNPAKITFKTGL
modifications: PRSIM_47

Key:
[1] = test system: split Nanoluciferase (LgBiT/SmBiT) reconstitution in HEK293 cells; assay: Split NanoLuc reconstitution assay (NanoBiT); assay type: cell-based, human; conditions: 100 nM simeprevir over no simeprevir; LgBiT fused to the C-terminus of the PRSIM binding module
Description: The ability of the PRSIM binding molecules to promote dimerization of two proteins to which they are fused was assessed with the NanoBiT system (Promega) that measures the reconstitution of a split Nanoluciferase (NanoLuc) and the resultant luminescence upon supply of a live cell imaging Nano-Glo NanoLuc substrate (FIG. 8). In the NanoBiT system, one interaction partner is fused via a flexible linker to an 18 kDa fragment of NanoLuc termed LgBiT (for “large bit”) (SEQ ID NO: 16) and the other is fused via an equivalent linker to a 1.3 kDa peptide SmBiT (“small bit”) (SEQ ID NO: 17). LgBit and SmBiT have a low affinity (190 μM) for each other in the absence of interacting partners and will not reconstitute to form an active luciferase enzyme. Once fused to the interacting proteins of a CID and supplied with inducer, they will reconstitute, and luminescence can be measured. The NanoBiT system supplies two sets of control proteins fused to LgBiT and SmBiT: a set of constitutively interacting proteins PRKAR2A:PRKACA; and the FRB:FKBP12 pair whose dimerization can be induced with rapamycin.
To establish the optimal orientation of the HCV NS3/4A PR (S139A) and PRSIM components, constructs whereby HCV NS3/4A PR (S139A) was fused at either the N- or C-terminus to SmBiT (SEQ ID NOs: 18 and 19, respectively) and a parallel set of constructs for each PRSIM binding module fused to either the N- or C-terminus of LgBiT (SEQ ID NOS: 20-30 and 31-41, respectively). The NanoBiT kit (Promega) supplies a set of vectors enabling these constructs to be generated. DNA strings encoding HCV NS3/4A PR (S139A) and the PRSIM molecules were purchased from GeneArt and amplified via PCR with primers with extensions containing restriction sites compatible with the NanoBiT vectors and were cloned via Gibson assembly. All constructs were verified via Sanger sequencing of the entire coding sequence.
All NanoBiT screens were performed in adherent HEK293 cells cultured in 96-well plates. Cells enzymatically dissociated from a tissue culture flask were counted and plated at 2×10^4 cells/well in a white, opaque-bottomed 96-well plate (Costar 3917). The plates were incubated overnight at 37° C. with 5% CO2 to allow the cells to adhere. On day 2, plasmids were co-transfected with Lipofectamine LTX (ThermoFisher) at a final concentration of 100 ng/well (50 ng/plasmid, one encoding a SmBiT fusion, the other a LgBiT fusion). On day 3, wells were treated with 100 nM of the appropriate small molecule inducer (rapamycin (FRB:FKBP12) or simeprevir (HCV NS3/4A PR:PRSIM)) or vehicle control, and luminescence was quantified with an Envision plate reader immediately following addition of Nano-Glo Live Cell Substrate (Promega).

[2] = test system: luciferase reporter gene in HEK293 cells; assay: Transcriptional regulation assay (split transcription factor), luciferase reporter; assay type: cell-based, human; conditions: one copy; for EC50: simeprevir dose-response
Text: The iDimerize regulated transcription system (Takara) was used to test the ability of PRSIM-based CIDs to regulate gene expression. […] The DBD and AD are separately fused to the two protein components of a CID such that, only in the presence of the small molecule inducer, the AD is brought into close proximity to the DBD, recruiting the transcription machinery to a promoter harbouring the DBD recognition sites. The iDimerize regulated transcription system (Takara) provides two vectors, pHet-Act1-2 and pZFHD1-Luciferase. The pHet-Act1-2 vector encodes two fusion proteins that represent a positive control: one is a fusion between FRB (T82L mutant; DmrC) and an activation domain (AD) from human p65 (SEQ ID NO: 42); the other is a fusion protein comprised of a DNA binding domain (ZFHD1) (SEQ ID NO: 43) fused to three tandem copies of FKBP12 (DmrA). These sequences are preceded by a CMV promoter and separated by an internal ribosome entry site (IRES). The ZFHD1 vector encodes luciferase preceded by an inducible promoter consisting of 12 copies of the recognition sequence of the ZFHD1 DBD upstream of a minimal IL-2 promoter. Binding of the DBD to its recognition sequence and recruitment of the transcriptional machinery by the AD initiates transcription of the luciferase reporter gene. The DNA sequence encoding HCV NS3/4A PR (S139A) was purchased as a DNA string from GeneArt and cloned into the pHet-Act1-2 vector as either an N-terminal fusion partner to the activation domain (SEQ ID NO: 44) (replacing FRB) or as a C-terminal fusion partner to the DNA binding domain (SEQ ID NO: 45) (replacing FKBP12) with flexible linkers (TGGGGSGGGGS (SEQ ID NO: 185) and SA, respectively) between the fusion partners. Subsequently, sequences encoding one copy of a panel of 12 PRSIM molecules (Table 2) were purchased as DNA strings from GeneArt and were cloned using Gibson assembly into the HCV NS3/4A PR (S139A)-containing pHetAct1-2 constructs described above, as a fusion partner to either the DBD (SEQ ID NOS: 46-56) or AD (SEQ ID NOS: 57-67), respectively. An equivalent construct was generated to replace the three copies of FKBP12 in pHet-Act1-2 with a single copy of FKBP12. The sequence of the constructs encoding both activation domain and DNA-binding domain fusion proteins was confirmed by Sanger sequencing of the entire coding region.
Sequences encoding the three HCV NS3/4A PR (S139A) mutants (Table 6) were purchased as DNA strings from GeneArt and were cloned using Gibson assembly into the pHetAct1-2 HCV NS3/4A PR (S139A)-PRSIM_23 (3 tandem copy) construct described above as a fusion partner to the AD (SEQ ID NOs: 211-216).
All transcriptional regulation assays were performed in adherent HEK293 cells cultured in 384-well plates. Cells enzymatically dissociated from a tissue culture flask were counted and plated at 7.5×10^3 cells/well in a 384-well plate. The plates were incubated overnight at 37° C. with 5% CO2 to allow the cells to adhere. On day 2, the cells were co-transfected with a pHet-Act1-2 plasmid (containing the FRB:FKBP12 control fusion proteins (Clontech) or the HCV NS3/4A PR (S139A):PRSIM fusion proteins) and a pZFHD1 plasmid (encoding either luciferase (Clontech) or NanoLuc-PEST (as described above)) using Lipofectamine LTX (ThermoFisher). On day 3, wells were treated with different concentrations of either A/C heterodimeriser (for the FRB:FKBP12 control), simeprevir or with vehicle control, and 24 hours later luminescence was quantified with an Envision plate reader immediately following addition of SteadyGlo luciferase substrate (Promega) or Nano-Glo Vivazine luciferase substrate (Promega). Alternatively, reverse transfections were carried out on Day 1, addition of dimeriser on Day 2 and luminescence quantified 24 hours later on Day 3.
Luminescence readings were converted into fold-change by dividing the signal in the presence of simeprevir by that in the absence of simeprevir.

HCV NS3/4A PR (S139A) [3] = molecular target: T1, HCV NS3/4A PR (S139A) (Hepatitis C virus subtype 1a, UniProt A8DG50, A1066T/I1043Q/I1044E/L1039E/L1040E/L1047Q/S1165A, form not given); assay: Biacore 8K binding kinetics of PRSIM binding molecules; conditions: 10 nM simeprevir present
Description: The scFv and Tn3 PRSIM binding molecules were covalently immobilised to a CM5 chip surface using standard amine coupling techniques at a concentration of 1 μg/ml in 10 mM sodium acetate pH 4.5.
(§1) The HCV NS3/4A PR (S139A), or BSA control, was diluted 1:4 (1.25-20 nM)±10 nM simeprevir in 10 mM Hepes pH 7.4, 150 mM NaCl, 0.05% Surfactant P20, 0.01% DMSO, ensuring constant simeprevir and DMSO concentration. The samples were flowed over the chip at 50 μl/min using single cycle kinetics, with 120 sec association and 600 sec dissociation. The chip surface was regenerated with two 20 sec pulses of 10 mM Glycine-HCl pH 3.0. The final sensorgrams were analysed using the Biacore 8K Evaluation Software and the affinity constant KD was determined using a 1:1 binding model. The same method was used for measuring the affinity of the HCV NS3/4A PR mutants for PRSIM_23 with minor deviations. The mutants were diluted 1:4 (2.5-40 nM)±simeprevir in 10 mM Hepes pH 7.4, 150 mM NaCl, 0.05% Surfactant P20, 0.08% DMSO, ensuring constant simeprevir and DMSO concentration. The samples were flowed over the chip at 50 μl/min using single cycle kinetics, with 180 sec association and 600 sec dissociation.

BSA = BSA (Bos taurus, UniProt P02769); assay: Biacore 8K BSA control; assay type: binding; design: key: # = no binding; * = minimal non-specific binding; conditions: 10 nM simeprevir present
Description: as §1

HCV NS3/4A PR (S139A) [4] = molecular target: T1, HCV NS3/4A PR (S139A); assay: HTRF binding screen; conditions: in the presence of simeprevir
Description: scFv and Tn3 PRSIM binding molecules that were selective for the HCV NS3/4A PR (S139A) were identified in homogeneous time-resolved fluorescence (HTRF®) assays run in parallel to measure binding in the presence and absence of simeprevir. HCV NS3/4A PR (S139A), and serial dilutions of purified PRSIM binding molecules, were prepared in assay buffer (PBS containing 0.4 M potassium fluoride and 0.1% BSA). Streptavidin cryptate (Cisbio) was pre-mixed with either anti-FLAG XL665 (to detect the Tn3 molecules) or anti-c-myc XL665 (to detect the scFv molecules) in assay buffer. For each assay 2.5 μl of sample titration was added to 2.5 μl HCV NS3/4A PR (S139A) and 2.5 μl of pre-mixed detection reagents. Either 2.5 μl simeprevir or 2.5 μl of a DMSO blank were also added to each well. Background was defined using wells with zero sample addition. Assay plates were incubated overnight at 4° C., prior to reading the time resolved fluorescence at 620 nm and 665 nm emission wavelengths using a PerkinElmer Envision plate reader. Data was analysed by calculating % Delta F values for each sample. Delta F was determined according to equation 1.
% Delta F=((sample 665 nm/620 nm ratio value)−(background 665 nm/620 nm ratio value)/(background 665 nm/620 nm ratio value))×100 Equation 1
Selective binding molecules are defined as those scFv and Tn3 PRSIM binding molecules that bind to HCV NS3/4A PR (S139A) in complex with simeprevir and no binding to HCV NS3/4A PR (S139A).

[5] = PRSIM fused to DBD, read-out: EC50
[6] = PRSIM fused to AD, read-out: EC50

Molecule | fold-change in luminescence [1] [fold] | Max fold change ([2]; PRSIM fused to AD) | EC50 ([2]; PRSIM fused to AD) | Max fold change ([2]; PRSIM fused to DBD) | EC50 [2, 5] [nM] | Rmax (HCV NS3/4A PR (S139A) [3]) [RUs] | ka (HCV NS3/4A PR (S139A) [3]) | kd (HCV NS3/4A PR (S139A) [3]) [s⁻¹] | BSA control (BSA) | HTRF max. signal (% delta F) (HCV NS3/4A PR (S139A) [4]) | EC50 [2, 6] [nM]
B1 | 16 | 5.83 | Ambiguous | 86.76 | 6.99 | – | – | – | – | – | –
B2 | – | 2.2 | – | 65.77 | 29.3 | 19.9 | 2.51 E+09 M^−1 s^−1 | 40.1 | # | 1955 | 12.3
B3 | – | 33.74 | – | 73.3 | 5.66 | 214.4 | 5.15e+06 M⁻¹ s⁻¹ | 0.0498 | # | 1440 | 3.54
B4 | – | 3.85 | – | 3 | 8.87 | 9 | 1.32e+10 M⁻¹ s⁻¹ | 51.2 | # | 1367 | 6.15
